# Patent publication US20230242658A1 (published 2023)
# Where a chain is given by its changes, count along the chain named.
# B1: PR007286 (antibody, human IgG1, V domains shown)
# VH: EVQLVESGGGLVKPGGSLRLSCAASGFTFSDYYMSWIRQAPGKGLEWVSYISSSGSTIYYADSVKGRFTISRDNAKNSLYLQMNSLRAEDTAVYYCARVKPVAGTWDWFDPWGQGTPVTVSS
# notes: HCAb, heavy chain only, human IgG1 Fc; also called R1016P142D03
# B2: PR007295 (antibody, human IgG1, V domains shown)
# VH: EVQLVESGGGLVKPGGSLRLSCAASGFTFSDYYMSWIRQAPGKGLEWVSYISNNGSTIYYADSVKGRFTISRDNAKNSLYLQMNSLRAEDTAVYYCARVRPGGSGNYWDWFDPWGQGTMVTVSS
# notes: HCAb, heavy chain only, human IgG1 Fc; also called R1016P147A09
# B3: PR007291 (antibody, human IgG1, V domains shown)
# VH: B2 VH with A23V, A24T, S35N, L45Q, N53G, M119P
# notes: HCAb, heavy chain only, human IgG1 Fc; also called R1016P145C07
# B4: PR007297 (antibody, human IgG1, V domains shown)
# VH: B2 VH with N53R, N54S, M119L
# notes: HCAb, heavy chain only, human IgG1 Fc; also called R1016P149F10
# B5: PR007300 (antibody, human IgG1, V domains shown)
# VH: B2 VH with A23T, A24T, S35N, I37V, M119P
# notes: HCAb, heavy chain only, human IgG1 Fc; also called R1016P156E05
# B6: PR007296 (antibody, human IgG1, V domains shown)
# VH: EVQLVESGGGLVKPGGSLRLSCVASGFTFSDYYMSWFRQAPGKGLEWVSYISGSGTTIDYADSVKGRFTISRDNAKNSLYLQMNSLRAEDTAVYYCAREREAVAGTLDFDNWGQGTPVTVSS
# notes: HCAb, heavy chain only, human IgG1 Fc; also called R1016P147B10
# B7: PR007299 (antibody, human IgG1, V domains shown)
# VH: EVQLVESGGGLVKPGGSLRLSCAASGFTFSDYQMSWLRQAPGKGLEWVSYISSSGRTIYYADSVKGRFTISRDNAKNSVSLQMNSLRAEDTAVYYCAREGRFFPGQGTPVTVSS
# notes: HCAb, heavy chain only, human IgG1 Fc; also called R1016P149H12
# B8: PR007149 (bispecific antibody, human IgG1, kappa)
# light: DIQMTQSPSTLSASVGDRVTVTCRASQSIYIWLAWYQQKPGKAPNLLIYKASSLETGVPSRFSGSGSGTEFTLTISSLQPDDFATYYCQQYYGSSRTFGQGTKVEIKRTVAAPSVFIFPPSDEQLKSGTASVVCLLNNFYPREAKVQWKVDNALQSGNSQESVTEQDSKDSTYSLSSTLTLSKADYEKHKVYACEVTHQGLSSPVTKSFNRGEC
# heavy: EVQLVESGGGLVQPGGSLRLSCAASGFTFSSYWMSWVRQAPGKGLEWVANIKQEGSEKYYVDSVKGRFTISRDNAKNSLYLQMNSLRAEDTAVYYCARDRAVAGAFDIWGQGTMVTVSSASTKGPSVFPLAPSSKSTSGGTAALGCLVKDYFPEPVTVSWNSGALTSGVHTFPAVLQSSGLYSLSSVVTVPSSSLGTQTYICNVNHKPSNTKVDKKVEPKSCDKTHTCPPCPAPEAAGAPSVFLFPPKPKDTLMISRTPEVTCVVVDVSHEDPEVKFNWYVDGVEVHNAKTKPREEQYNSTYRVVSVLTVLHQDWLNGKEYKCKVSNKALPAPIEKTISKAKGQPREPQVYTLPPSREEMTKNQVSLTCLVKGFYPSDIAVEWESNGQPENNYKTTPPVLDSDGSFFLYSKLTVDKSRWQQGNVFSCSVMHEALHNHYTQKSLSLSPGGGSGGSEVQLVESGGGLVKPGGSLRLSCTTSGFTFSDYYMNWVRQAPGKGLEWVSYISNNGSTIYYADSVKGRFTISRDNAKNSLYLQMNSLRAEDTAVYYCARVRPGGSGNYWDWFDPWGQGTPVTVSS
# notes: PD-L1x4-1BB IgG-VH: PR000265 + VH of PR007300 at heavy-chain C-terminus
# Tests used:
# [1] = target: 4-1BB on HEK293/4-1BB/NF-kb reporter cells; assay: cell-based or functional assay
# [2] = target: T1, human 4-1BB on CHO-K1 cells (human, UniProt Q07011 24-255); assay: FACS, CHO-K1/hu 4-1BB cells
# T1 construct: whole, on cells; also called CHO-K1/hu 4-1BB; CHO-K1/hu4-1BB
# [3] = target: T2, human PD-L1 on CHO-K1 cells (human, UniProt Q9NZQ7 19-290); assay: FACS, CHO-K1/hPD-L1 cells
# T2 construct: whole, on cells; also called CHO-K1/hPDL1; CHO-K1/hPD-L1
# [4] = target: T1, human 4-1BB on CHO-K1 cells; assay: FACS, CHO-K1/hu4-1BB cells
# Description: The binding abilities of the antibody molecules to a CHO-K1 cell strain highly expressing human 4-1BB (CHO-K1/hu4-1BB, GenScript, M00538) and a CHO-K1 cell strain highly expressing cynomolgus monkey 4-1BB (CHO-K1/cyno4-1BB, GenScript, M00569) were determined by flow cytometry FACS. Specifically, the cells were digested and resuspended in a complete medium, and the cell density was adjusted to 2×10⁶ cells/mL. Then, the cells were seeded in a 96-well V-bottom plate (Corning, #3894) at 100 μL/well (2×10⁵ cells/well) and centrifuged at 4° C. for 5 min, and the supernatant was discarded. Then, the serially diluted antibody molecules were added to the 96-well plate at 100 μL/well, and the mixtures were well mixed. The antibody molecules might serially diluted 3-fold from the highest final concentration 200 nM to obtain a total of 12 concentrations. hIgG1 iso (CrownBio, #C0001) was used as an isotype control. The cells were incubated at 4° C. for 1 h away from light. Then, the cells in each well were rinsed twice with 100 μL of pre-cooled FACS buffer (PBS buffer containing 0.5% BSA) and centrifuged at 500 g at 4° C. for 5 min, and then the supernatant was discarded. […] Then, the cells in each well were then rinsed twice with 200 μL of pre-cooled FACS buffer and centrifuged at 500 g at 4° C. for 5 min, and then the supernatant was discarded. Finally, a pre-cooled FACS buffer was added at 200 μL/well to resuspend the cells. The fluorescence signal values were read using a BD FACS CANTOII flow cytometer.
# T1 sequence (Q07011 24-255): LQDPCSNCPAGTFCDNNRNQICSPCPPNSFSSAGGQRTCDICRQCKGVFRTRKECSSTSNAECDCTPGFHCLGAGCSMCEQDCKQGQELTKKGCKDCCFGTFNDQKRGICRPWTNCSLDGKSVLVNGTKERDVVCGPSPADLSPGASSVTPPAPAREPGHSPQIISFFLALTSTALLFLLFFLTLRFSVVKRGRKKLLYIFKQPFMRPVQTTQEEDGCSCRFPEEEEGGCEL
# T2 sequence (Q9NZQ7 19-290): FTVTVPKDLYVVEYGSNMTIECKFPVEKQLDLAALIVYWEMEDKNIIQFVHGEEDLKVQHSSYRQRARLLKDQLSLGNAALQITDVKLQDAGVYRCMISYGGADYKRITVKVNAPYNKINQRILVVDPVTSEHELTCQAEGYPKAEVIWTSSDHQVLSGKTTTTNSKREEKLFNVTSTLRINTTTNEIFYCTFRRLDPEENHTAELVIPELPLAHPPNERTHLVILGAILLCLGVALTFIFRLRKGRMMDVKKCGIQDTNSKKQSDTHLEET
Binder,"EC50, NF-kb luciferase reporter, CHO-K1/CD32b crosslinking [1] [nM]",binding result [2],binding result [3],binding result [4]
B1,< 0.8,binds,–,–
B2,< 0.8,binds,–,–
B3,< 0.8,binds,–,–
B4,< 0.8,binds,–,–
B5,< 0.8,binds,–,–
B6,< 0.8,binds,–,–
B7,< 0.8,binds,–,–
B8,–,–,binds,binds
